Reference: US11702666B2, “Cell-based assay for determining activity in the retinoblastoma pathway” (Medical Diagnostic Laboratories, LLC, priority 2017, dated 2023)
Where a chain is given by its changes, count along the chain named. Numbers in names are those of the source. Entries after “also recorded” stand apart in the source; their conditions may differ.

B1: CDK4 R24C: hyperactive CDK4 mutant, COSMIC database (protein, UniProt P11802 2-303, looked up, variant R24C)
Cyclin-dependent kinase 4: ATSRYEPVAEIGVGAYGTVYKACDPHSGHFVALKSVRVPNGGGGGGGLPISTVREVALLRRLEAFEHPNVVRLMDVCATSRTDREIKVTLVFEHVDQDLRTYLDKAPPPGLPAETIKDLMRQFLRGLDFLHANCIVHRDLKPENILVTSGGTVKLADFGLARIYSYQMALTPVVVTLWYRAPEVLLQSTYATPVDMWSVGCIFAEMFRRKPLFCGNSEADQLGKIFDLIGLPPEDDWPRDVSLPRGAFPPRGPRPVQSVVPEMEESGAQLLLEMLTFNPHKRISAFRALQHSYLHKDEGNPE
B2: CDK4 V137I: CDK4 mutant from COSMIC database (protein, UniProt P11802 2-303, looked up, variant V137I)
Cyclin-dependent kinase 4: B1 Cyclin-dependent kinase 4 with C23R, V136I
B3: CDK4 D158N: CDK4 mutant, literature kinase dead (protein, UniProt P11802 2-303, looked up, variant D158N)
Cyclin-dependent kinase 4: B1 Cyclin-dependent kinase 4 with C23R, D157N
B4: CDK4 K35M: CDK4 mutant, literature kinase dead (protein, UniProt P11802 2-303, looked up, variant K35M)
Cyclin-dependent kinase 4: B1 Cyclin-dependent kinase 4 with C23R, K34M
B5: CDK4 S285C: CDK4 mutant from COSMIC database (protein, UniProt P11802 2-303, looked up, variant S285C)
Cyclin-dependent kinase 4: B1 Cyclin-dependent kinase 4 with C23R, S284C
B6: CDK4 K155Q: CDK4 mutant from COSMIC database (protein, UniProt P11802 2-303, looked up, variant K155Q)
Cyclin-dependent kinase 4: B1 Cyclin-dependent kinase 4 with C23R, K154Q
B7: CDK4 R210Q: CDK4 mutant from COSMIC database (protein, UniProt P11802 2-303, looked up, variant R210Q)
Cyclin-dependent kinase 4: B1 Cyclin-dependent kinase 4 with C23R, R209Q
B8: CDK4 R24S: CDK4 mutant from COSMIC database (protein, UniProt P11802 2-303, looked up, variant R24S)
Cyclin-dependent kinase 4: B1 Cyclin-dependent kinase 4 with C23S
B9: CDK4 K22M: CDK4 mutant from COSMIC database (protein, UniProt P11802 2-303, looked up, variant K22M)
Cyclin-dependent kinase 4: B1 Cyclin-dependent kinase 4 with K21M, C23R
B10: CDK4 K35R: CDK4 mutant from COSMIC database (protein, UniProt P11802 2-303, looked up, variant K35R)
Cyclin-dependent kinase 4: B1 Cyclin-dependent kinase 4 with C23R, K34R
B11: CDK4 L161L: CDK4 silent variant (C-T) from COSMIC database (protein, UniProt P11802 2-303, looked up)
Cyclin-dependent kinase 4: B1 Cyclin-dependent kinase 4 with C23R
modifications: silent L161L nucleotide variant
notes: CDK4 silent variant (C-T) from COSMIC database
B12: CDK4 D158Y: CDK4 mutant from COSMIC database (protein, UniProt P11802 2-303, looked up, variant D158Y)
Cyclin-dependent kinase 4: B1 Cyclin-dependent kinase 4 with C23R, D157Y
B13: CDK4 D158D: CDK4 control with one nucleotide substitution that did not change the amino acid (protein, UniProt P11802 2-303, looked up)
Cyclin-dependent kinase 4: B1 Cyclin-dependent kinase 4 with C23R
modifications: silent D158D nucleotide variant
B14: CDK4 T102R: predicted drug resistant CDK4 mutant (protein, UniProt P11802 2-303, looked up, variant T102R)
Cyclin-dependent kinase 4: B1 Cyclin-dependent kinase 4 with C23R, T101R
B15: CDK4 I12L: predicted drug resistant CDK4 mutant (protein, UniProt P11802 2-303, looked up, variant I12L)
Cyclin-dependent kinase 4: B1 Cyclin-dependent kinase 4 with I11L, C23R
B16: CDK4 L49R: predicted drug resistant CDK4 mutant (protein, UniProt P11802 2-303, looked up, variant L49R)
Cyclin-dependent kinase 4: B1 Cyclin-dependent kinase 4 with C23R, L48R
B17: CDK4 G18A: predicted drug resistant CDK4 mutant (protein, UniProt P11802 2-303, looked up, variant G18A)
Cyclin-dependent kinase 4: B1 Cyclin-dependent kinase 4 with G17A, C23R
B18: CDK4 I51F: predicted drug resistant CDK4 mutant (protein, UniProt P11802 2-303, looked up, variant I51F)
Cyclin-dependent kinase 4: B1 Cyclin-dependent kinase 4 with C23R, I50F
B19: CDK4 A33S: predicted drug resistant CDK4 mutant (protein, UniProt P11802 2-303, looked up, variant A33S)
Cyclin-dependent kinase 4: B1 Cyclin-dependent kinase 4 with C23R, A32S
B20: CDK4 A157S: predicted drug resistant CDK4 mutant (protein, UniProt P11802 2-303, looked up, variant A157S)
Cyclin-dependent kinase 4: B1 Cyclin-dependent kinase 4 with C23R, A156S
B21: CDK4 F931 T102K: CDK4 double mutant F93I and T102K (protein, UniProt P11802 2-303, looked up, variant F93I T102K)
Cyclin-dependent kinase 4: B1 Cyclin-dependent kinase 4 with C23R, F92I, T101K
B22: CDK4 F93I: predicted drug resistant CDK4 mutant (protein, UniProt P11802 2-303, looked up, variant F93I)
Cyclin-dependent kinase 4: B1 Cyclin-dependent kinase 4 with C23R, F92I
B23: CDK4 T102K: predicted drug resistant CDK4 mutant (protein, UniProt P11802 2-303, looked up, variant T102K)
Cyclin-dependent kinase 4: B1 Cyclin-dependent kinase 4 with C23R, T101K

The molecules below were run on Rb/E2F1-Dp-1 complex (assay: CDK4 mutant activity / drug resistance in NanoBiT assay, stable cell line #11). Conditions: CDK4 mutants, compared to the WT (being 100%).
Format: cell-based, human
Description: A linear expression cassette of mutated CDK4 or CDK6 was generated by PCR mediated overlapping extension method. A pair of forward and reverse primers containing the targeted mutations was designed. The mutated codon was located in the middle of a primer flanked by 18-21 nucleotides on each side. Two PCRs (named as PCR #1 and PCR #2 in FIG. 1) were performed using UF-CMV forward and mutated reverse primers, or mutated forward and BGH-UR primers. The PCR products were cleaned up by ExoSAP-IT® (Affymetrix) to remove unconsumed dNTPs and primers. The treated PCR products were mixed together followed by dilution with water. A second round of PCR was performed using the diluted PCR mixture, and the UF and UR primers (FIG. 1). The amplified products were gel-purified. The DNA concentration was quantitated by the optical density at 260 nm using Nanodrop. The targeted mutations were incorporated in the CDK4 or CDK6 genes during the PCR mediated overlapping extension method. The introduced mutations were confirmed by the DNA sequencing.
To examine the ability of the assay to detect variants in CDK4 or CDK6 that affect function, kinase dead mutants and COSMIC (Catalogue Of Somatic Mutations in cancer) unknown mutants were created. For comparison, hyperactive CDK4 or CDK6 mutants known to be hyperactive due to less binding to natural inhibitor p16 were also created. The mutations in CDK4 or CDK6 were created by site-directed mutagenesis. WT or mutated CDK4 or CDK6 along with the CyclinD1 and SB-Rb were co-transfected, under similar conditions as previously indicated (see FIG. 9).
To examine the specificity of the assay, particular CDK4 kinase dead mutants were created. Modifications to D158 were made by changing aspartate to nonpolar alanine (D158A) or positively charged arginine (D158R). […] The mutations in CDK4 were created by site-directed mutagenesis. WT or mutated CDK4 along with the CyclinD1 and SB-Rb was co-transfected into the #11 cell line, under the same conditions as previously indicated. […] Kinase dead mutants have the high signal due to inability to phosphorylate Rb.
Computer modeling was used to reveal the drug-binding pocket and predict drug-resistant mutants. The mutations in CDK4 and CDK6 were created by site-directed mutagenesis. WT or mutated CDK4 or CDK6 along with the CyclinD1 and SB-Rb was co-transfected into #11 cell line, under the same conditions as previously indicated. […] Dose response curves are presented on FIG. 13A and FIG. 13B. Activity of other mutants was very similar to the WT or KD.
CDK4 and CDK6 mutants with known function and unknown function taken from the COSMIC database were analyzed in the present assay and are summarized in Table 7A and Table 7B. The mutants were classified according to their activity. Table 7A and Table 7B also show the number of counts per mutant in the COSMIC database, type of cancer, and luciferase activity compared to the WT (being 100%).

Molecule | Luc. activity (/wt) [%]
B1 | 91
B2 | 120
B3 | 300
B4 | 350
B5 | 125
B6 | 130
B7 | 74.5
B8 | 117
B9 | 141
B10 | 310
B11 | 59
B12 | 230

Same assay, conditions: CDK4 mutants, no drug

Molecule | luciferase signal compared to WT CDK4 (in words)
B1 | a little bit lower basal signal than WT
B13 | the same activity as a WT

Same assay, conditions: predicted drug resistant CDK4 mutants, relative to WT

Molecule | Luc. activity (/wt) [%]
B14 | 156
B15 | 126
B16 | 281
B17 | 97.5
B18 | 160
B19 | 182
B20 | 195
B21 | 152
B22 | 157
B23 | 162

Same assay, conditions: predicted drug resistant CDK4 mutants; Palbociclib/Ribociclib; KD = kinase dead

Molecule | Observed drug resist.
B21 | Resistant
B22 | showed drug resistance; also recorded: Resistant
B23 | showed drug resistance; also recorded: Resistant
